Positions count from the first letter of the chain named. In names and notes the source's numbering stands. One block for each binder: values may come before it. Square brackets hold non-standard residues; d marks the D form. Ends that are not written are not given here. pY = N[C@@H](Cc1ccc(OP(=O)(O)O)cc1)C(=O)O
Tests used:
[1] = target: T1, GST-Zap-70(1-337) (human, UniProt P43403 1-337); experiment: affinity chromatography / surface plasmon resonance
T1 construct: range 1-337; also called tandem SH2 domains of Zap-70; not shown: glutathione S-transferase (GST) from pGEX-2T
T1 sequence (looked up): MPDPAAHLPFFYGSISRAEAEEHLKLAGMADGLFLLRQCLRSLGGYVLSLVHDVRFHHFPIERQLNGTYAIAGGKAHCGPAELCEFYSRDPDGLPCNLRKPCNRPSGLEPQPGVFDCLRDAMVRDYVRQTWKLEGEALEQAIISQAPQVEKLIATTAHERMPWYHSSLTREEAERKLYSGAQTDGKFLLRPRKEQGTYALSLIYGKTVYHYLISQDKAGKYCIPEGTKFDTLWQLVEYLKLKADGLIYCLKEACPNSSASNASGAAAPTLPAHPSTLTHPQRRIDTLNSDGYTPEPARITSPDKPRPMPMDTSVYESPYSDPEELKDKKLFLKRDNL

[2] = target: Syk(6-370) cleaved from GST-Syk(6-370) by thrombin (UniProt P43405 6-370); experiment: surface plasmon resonance (BIAcore 3000)
Protocol: However integrins are far more abundant than ITAM containing receptor complexes on most cells. For example, Jurkat T cells express ˜80,000 copies of α4β1 (Chen et al. (1999) J Biol Chem 274:13167-13175) and only ˜-12,000 copies of the TCR (Graber et al. (1991) J Immunol 146:2935-2943) on their cell surface.
Experimental procedures, integrin cytoplasmic domain modifications, and data analysis was performed in accordance with procedures described by Yan et al. ((2001) J Biol Chem 276:28164-28170).

[3] = target: T2, Zap-70(1-162) (human, UniProt P43403 1-162); experiment: binding of Zap-70 truncation mutants to the β3 tail
T2 construct: range 1-162; also called N-terminal SH2 domain of Zap-70 with its intact IA domain
Protocol: (§1) For direct binding assays, model peptides (1 mg) were dissolved in 1 ml buffer containing 20 mM Tris (pH 7.9), 500 mM NaCl, and 6 M urea. To this, 50 ul packed His-Bind® Resin (Novagen, Madison, Wis.) was added and the mixture was rotated for 1 hour at room temperature. Immobilized peptides were washed 5× in above buffer without urea, and resuspended in 500 μl buffer containing 20 mM PIPES pH 6.8, 50 mM NaCl, 3 mM MgCl₂, 150 mM sucrose, 50 mM NaF, 40 mM Na₄P₂O₇*10H₂O (buffer A) supplemented with 0.1% TritonX-100 and 3 mM MgCl₂. Purified GST-fusion proteins were added to 0.5 ml buffer A supplemented with 0.1% TritonX-100 and 3 mM MgCl₂. Five μl of total packed resin loaded with various integrin cytoplasmic domain model proteins was added to the GST-fusion protein. The mixture was incubated for 40 minutes at room temperature with continuous rotation. The beads were then washed five times in buffer A with 0.1% TritonX-100 and 3 mM MgCl₂. Bound proteins were eluted by boiling in reducing sample buffer, fractionated by SDS PAGE, and immuno-blotted.

[4] = target: T3, Zap-70(1-132) (human, UniProt P43403 1-132); experiment: as above
T3 construct: range 1-132
T3 sequence (looked up): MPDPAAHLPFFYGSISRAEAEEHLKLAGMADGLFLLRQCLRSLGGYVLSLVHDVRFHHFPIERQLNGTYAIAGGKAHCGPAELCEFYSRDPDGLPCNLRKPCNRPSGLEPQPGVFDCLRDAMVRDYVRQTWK
Protocol: as §1

[5] = target: T4, GST fusion of the interdomain A of Syk (UniProt P43405 108-167); experiment: direct binding assay with GST fusion of Syk interdomain A
T4 construct: domain: interdomain A; also called Syk interdomain A GST-fusion protein; not shown: glutathione S-transferase (GST) fusion partner
Protocol: (§2) The regions involved in phosphotyrosine binding are widely separated and in opposite orientation (Hof et al. (1998) Cell 92:441-450).
as §1

[6] = target: T5, GST-Zap-70(163-254) (human, UniProt P43403 163-254); experiment: direct binding assay
T5 construct: also called Zap-70 C-terminal SH2 domain; not shown: glutathione S-transferase (GST) from pGEX-2T
T5 sequence (looked up): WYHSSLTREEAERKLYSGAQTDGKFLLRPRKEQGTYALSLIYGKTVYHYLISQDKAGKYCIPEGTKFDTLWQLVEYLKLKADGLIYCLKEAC
Protocol: as §2, §1

[7] = target: T6, GST-Zap-70(1-103) (human, UniProt P43403 1-103); experiment: direct binding assay
T6 construct: range 1-103; also called Zap-70 N-terminal SH2 domain; not shown: glutathione S-transferase (GST) from pGEX-2T
T6 sequence (looked up): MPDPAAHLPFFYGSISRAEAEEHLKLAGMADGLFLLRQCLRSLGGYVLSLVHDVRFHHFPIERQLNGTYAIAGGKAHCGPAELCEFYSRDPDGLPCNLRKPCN
Protocol: as §2, §1

[8] = target: T7, GST-Syk(163-270) (UniProt P43405 163-270); experiment: direct binding assay
T7 construct: also called C-terminal SH2 domain of Syk; not shown: glutathione S-transferase (GST) fusion partner
Protocol: as §2, §1

[9] = target: T8, tandem SH2 domains of SHP-2 (UniProt Q06124 1-220, limits assumed); experiment: direct binding assay
T8 construct: domain: tandem SH2 domains
T8 sequence (looked up): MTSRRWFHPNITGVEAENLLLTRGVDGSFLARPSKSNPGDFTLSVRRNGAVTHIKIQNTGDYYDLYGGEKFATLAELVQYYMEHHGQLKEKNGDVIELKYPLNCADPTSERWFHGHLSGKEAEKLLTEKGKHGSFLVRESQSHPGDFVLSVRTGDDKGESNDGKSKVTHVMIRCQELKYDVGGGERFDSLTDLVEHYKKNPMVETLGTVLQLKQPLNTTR
Protocol: as §2, §1

[10] = target: T9, Zap-70 (human, UniProt P43403 1-619); experiment: affinity chromatography of cell lysates on tail model protein beads, immunoblot
T9 construct: also called Syk paralog
T9 sequence (looked up): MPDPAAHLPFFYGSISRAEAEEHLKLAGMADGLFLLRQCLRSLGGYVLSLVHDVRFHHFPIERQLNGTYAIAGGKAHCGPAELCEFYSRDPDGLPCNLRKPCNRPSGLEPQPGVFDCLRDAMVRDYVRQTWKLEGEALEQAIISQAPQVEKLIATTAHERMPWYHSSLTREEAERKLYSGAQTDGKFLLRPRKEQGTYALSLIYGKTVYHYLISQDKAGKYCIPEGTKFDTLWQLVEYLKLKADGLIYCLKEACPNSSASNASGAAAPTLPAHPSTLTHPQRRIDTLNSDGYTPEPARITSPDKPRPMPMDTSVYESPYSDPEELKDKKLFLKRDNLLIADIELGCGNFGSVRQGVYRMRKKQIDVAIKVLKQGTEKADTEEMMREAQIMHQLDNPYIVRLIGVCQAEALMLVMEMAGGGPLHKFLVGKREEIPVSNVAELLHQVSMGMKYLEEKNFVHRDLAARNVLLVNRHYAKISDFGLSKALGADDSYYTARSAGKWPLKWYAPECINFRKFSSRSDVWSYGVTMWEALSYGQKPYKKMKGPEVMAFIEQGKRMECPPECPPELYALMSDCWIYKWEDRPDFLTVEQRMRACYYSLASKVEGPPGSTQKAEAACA
Text: (§3) The model protein mimics are designed with an N-terminal heptad repeat sequence joined to the integrin cytoplasmic domains. The repeats form a coiled-coil homodimer that dimerizes the integrin tails (Pfaff et al. (1998) J Biol Chem 273:6104-6109). These protein mimics are also describied in U.S. patent application Ser. No. 90/320,907, filed May 27, 1999 and U.S. patent application Ser. No. 90/323,447, filed Jun. 1, 1999, the teachings of which are herein incorporated by reference in their entirety.
(§4) Following incubation, beads were washed and bound protein was analyzed by immunoblotting.

[11] = target: T10, Syk protein tyrosine kinase (wild type) (UniProt P43405 1-635); experiment: as above
T10 construct: the printed residue numbers (K402, R195, R42, Tyr348) fit it; also called wild-type Syk; Syk kinase
Text: as §3, §4

[12] = target: GST-Syk(6-370) (UniProt P43405 6-370); experiment: direct binding of GST fusion protein to tail model protein beads, immunoblot
Protocol: as §4, §1

[13] = target: T1, GST-Zap-70(1-337); experiment: as above
Protocol: as §4, §1

[14] = target: T10, Syk protein tyrosine kinase (wild type); experiment: cell-based or functional assay
[15] = target: T10, Syk protein tyrosine kinase (wild type); experiment: binding to β3 tail deletion mutant in vitro
Protocol: as §1

Binder: KLLIHLSDLREYRRFEKEKLKSQWNNDNPLFKSATTTVMNPKFAES (other, UniProt P05107 724-769, looked up, not shown: small tags and cut ends, not fully specified, domain: cytoplasmic domain) [β2 integrin cytoplasmic domain model protein]
- binding result [1]: binds
- Kd [2]: 36 nM

B1: integrin β3 cytoplasmic tail model protein (other, UniProt P05106 742-788, looked up, not shown: a dimerising Fc or GST)
chain: KLLITIHDRKEFAKFEEERARAKWDTANNPLYKEATSTFTNITYRGT
modifications: also: coiled-coil homodimer
notes: domain: cytoplasmic domain; Coiled-coil homodimer; also called β3 tail; β3 tail model protein
- binding result [3]: binds
- binding result [4]: binds
- binding result [1]: binds
- binding result [5]: no binding
- binding result [6]: no binding
- binding result [7]: binds
- binding result [8]: no binding
- binding result [9]: no binding
- Kd [2]: 24 nM

Binder: KLLITIHDRKEFAKFEEERARAKWDTANNPLYKEAT (other, UniProt P05106 742-777, looked up, not shown: small tags and cut ends, not fully specified, domain: cytoplasmic domain) [β3(752X) cytoplasmic tail model protein]
- binding result [15]: no binding

More lines, now with the values ahead:

- binding result [10]: no binding
- binding result [11]: no binding
- binding result [12]: no binding (tested: 5 nM)
- binding result [13]: no binding (tested: 5 nM)
B2: integrin β3(Y747A) cytoplasmic tail model protein (other, UniProt P05106 742-788, looked up, not shown: small tags and cut ends)
chain: B1 chain with Y32A
modifications: not fully specified
notes: domain: cytoplasmic domain; also called β3(Y747A) tail; point mutant of the β3 tail (Y747A)

- binding result [1]: binds
Binder: KLLMIIHDRREFAKFEKEKMNAKWDTGENPIYKSAVTTVVNPKYEGK (other, UniProt P05556 752-798, looked up, not shown: small tags and cut ends, not fully specified, domain: cytoplasmic domain) [β1A integrin cytoplasmic domain model protein]

- activation of Syk kinase in vitro (EC50) [14]: 1000 to 2000 nM
Binder: DGV[pY]TGLSTRNQET[pY]ETLKTCR [dually-phosphorylated FcεRIγ chain ITAM peptide]

- binding result [15]: no binding
B3: β3(759X) cytoplasmic tail model protein (other, UniProt P05106 742-784, looked up, not shown: small tags and cut ends)
chain: KLLITIHDRKEFAKFEEERARAKWDTANNPLYKEATSTFTNIT
modifications: not fully specified
notes: domain: cytoplasmic domain; C-terminal truncation
